# Measurements as given in publication PMC4643928.
# What was measured:
# Assay in all cases: fluorescence anisotropy
# Details in all cases: FA: 20 mM Tris-HCl pH 7.5, 70 mM KCl, 1 mM MgCl2, 10% glycerol, 50 nM DNA, EMSA: 20 mM Tris-HCl pH 7.5, 300 mM KCl, 4 mM MgCl2, 5 mM DTT, 1 nM …
# [1] = system: EcGyrA-CTD(ΔT) (Escherichia coli)
# [2] = system: MBP-PfGyrA-CTD (Plasmodium falciparum)
# [3] = system: MBP-PfGyrA-CTD(ΔN) (Plasmodium falciparum)
substance,measurement,setting,value
37-bp dsDNA,Kd,[1],1110 nM
same,Kd,[2],205 nM
same,Kd,[3],222 nM
